Reference: patent publication US20050164163A1 (MEDICAL RESEARCH COUNCIL, published 2005)

Experiments:
[1] = target: T1, HSV-1 POL (UL30 protein, catalytic subunit of the HSV-1 DNA polymerase) (HSV-1, UniProt P04293 1-1235); assay: competition ELISA of FIG. 7: peptide incubated with POL 15 min, then added to UL8-coated wells
T1 construct: mature; Purified from Sf cells infected with baculovirus AcUL30
T1 sequence (looked up): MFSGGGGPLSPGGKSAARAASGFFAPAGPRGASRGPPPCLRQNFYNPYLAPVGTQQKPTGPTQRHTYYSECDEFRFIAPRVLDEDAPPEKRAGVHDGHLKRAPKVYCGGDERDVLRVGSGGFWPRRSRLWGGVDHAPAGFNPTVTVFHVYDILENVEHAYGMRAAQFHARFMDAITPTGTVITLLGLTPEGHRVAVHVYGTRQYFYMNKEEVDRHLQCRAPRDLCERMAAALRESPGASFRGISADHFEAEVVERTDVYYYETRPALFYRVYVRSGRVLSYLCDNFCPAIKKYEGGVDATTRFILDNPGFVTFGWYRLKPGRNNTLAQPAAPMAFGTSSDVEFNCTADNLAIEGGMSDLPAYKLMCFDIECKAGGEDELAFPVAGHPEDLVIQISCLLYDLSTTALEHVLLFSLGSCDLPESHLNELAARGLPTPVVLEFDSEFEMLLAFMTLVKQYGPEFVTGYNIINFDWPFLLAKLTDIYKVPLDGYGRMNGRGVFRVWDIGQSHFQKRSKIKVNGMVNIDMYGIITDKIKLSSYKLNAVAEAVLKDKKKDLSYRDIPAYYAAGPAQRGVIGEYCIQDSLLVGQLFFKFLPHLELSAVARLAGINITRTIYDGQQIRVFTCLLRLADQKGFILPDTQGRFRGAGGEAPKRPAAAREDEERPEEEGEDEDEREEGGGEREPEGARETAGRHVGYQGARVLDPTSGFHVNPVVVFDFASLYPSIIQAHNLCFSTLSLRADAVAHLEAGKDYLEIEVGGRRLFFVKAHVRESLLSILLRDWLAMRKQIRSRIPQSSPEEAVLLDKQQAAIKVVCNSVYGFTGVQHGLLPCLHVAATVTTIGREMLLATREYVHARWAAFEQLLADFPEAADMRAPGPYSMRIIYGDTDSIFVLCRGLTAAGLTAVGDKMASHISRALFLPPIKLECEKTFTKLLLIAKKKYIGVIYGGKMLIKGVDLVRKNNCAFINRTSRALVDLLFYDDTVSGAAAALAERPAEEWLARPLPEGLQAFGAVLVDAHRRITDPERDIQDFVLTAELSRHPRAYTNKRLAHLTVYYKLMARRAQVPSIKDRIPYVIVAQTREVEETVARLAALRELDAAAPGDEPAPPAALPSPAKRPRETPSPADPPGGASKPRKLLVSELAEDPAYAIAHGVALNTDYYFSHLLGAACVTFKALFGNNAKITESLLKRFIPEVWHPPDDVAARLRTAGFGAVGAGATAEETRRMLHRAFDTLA

[2] = target: T1, HSV-1 POL (UL30 protein, catalytic …); assay: competition ELISA: peptide incubated with POL, then added to UL8-coated wells; average of independent experiments
[3] = target: T1, HSV-1 POL (UL30 protein, catalytic …); assay: competition ELISA: peptide incubated with POL 15 min, then added to UL8-coated wells
[4] = target: T2, HCMV UL54 protein (HCMV DNA polymerase) (HCMV strain AD169, UniProt P08546 1-1242); assay: ELISA, UL102 coated (0 to 0.4 µg), UL54 added (0 to 0.6 µg), detected with antiserum 144
T2 construct: mature; Purified from Sf cells infected with AcUL54
T2 sequence: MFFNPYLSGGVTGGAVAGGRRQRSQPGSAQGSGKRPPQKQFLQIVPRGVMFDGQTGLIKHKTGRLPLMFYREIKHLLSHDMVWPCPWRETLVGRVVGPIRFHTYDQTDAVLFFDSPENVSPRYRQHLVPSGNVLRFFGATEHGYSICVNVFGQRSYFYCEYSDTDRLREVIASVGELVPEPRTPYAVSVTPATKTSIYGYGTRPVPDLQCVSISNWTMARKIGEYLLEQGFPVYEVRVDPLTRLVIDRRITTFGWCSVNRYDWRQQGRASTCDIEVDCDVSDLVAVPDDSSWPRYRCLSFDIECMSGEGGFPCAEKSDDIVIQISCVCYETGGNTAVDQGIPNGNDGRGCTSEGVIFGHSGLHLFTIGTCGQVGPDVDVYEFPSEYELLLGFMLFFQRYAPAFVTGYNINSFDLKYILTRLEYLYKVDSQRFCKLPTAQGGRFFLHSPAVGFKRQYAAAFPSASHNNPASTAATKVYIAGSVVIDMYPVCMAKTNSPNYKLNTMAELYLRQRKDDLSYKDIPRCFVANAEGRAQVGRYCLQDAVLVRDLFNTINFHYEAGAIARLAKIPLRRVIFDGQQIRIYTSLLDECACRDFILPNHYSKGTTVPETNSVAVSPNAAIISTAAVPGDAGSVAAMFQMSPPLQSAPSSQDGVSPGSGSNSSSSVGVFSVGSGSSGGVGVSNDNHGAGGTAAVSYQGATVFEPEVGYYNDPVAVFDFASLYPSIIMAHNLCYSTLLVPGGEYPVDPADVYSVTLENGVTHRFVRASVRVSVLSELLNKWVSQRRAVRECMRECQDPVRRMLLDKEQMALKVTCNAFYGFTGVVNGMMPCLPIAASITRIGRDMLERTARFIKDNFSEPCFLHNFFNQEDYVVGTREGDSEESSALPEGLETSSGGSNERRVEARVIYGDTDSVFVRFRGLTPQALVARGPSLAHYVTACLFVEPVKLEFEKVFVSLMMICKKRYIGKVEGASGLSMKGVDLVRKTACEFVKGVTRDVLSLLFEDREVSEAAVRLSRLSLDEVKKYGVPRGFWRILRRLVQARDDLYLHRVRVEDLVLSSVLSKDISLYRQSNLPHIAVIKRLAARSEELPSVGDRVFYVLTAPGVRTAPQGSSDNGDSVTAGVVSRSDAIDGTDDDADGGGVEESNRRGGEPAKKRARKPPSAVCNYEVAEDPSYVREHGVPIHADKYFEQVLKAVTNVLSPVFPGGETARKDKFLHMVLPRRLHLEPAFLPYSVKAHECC

B1: Peptide 7 (Table 2), UL8 amino acids 719-738 (peptide)
peptide: IELVFTGVLAGVWGEGGKFV
notes: Synthetic 20-residue peptide from HSV-1 UL8
[1]
  IC50: ~1000 nM
[2]
  IC50: 2250 nM

B2: Peptide 5 (Table 2), UL8 residues 722-750 (peptide)
peptide: VFTGVLAGVWGEGGKFVYPFDDKMSFLFA
notes: Synthetic peptide, C-terminal 29 amino acids of HSV-1 UL8
[3]
  binding result: binds

B3: HCMV UL102 protein (other)
chain: MTAQPPLHHRHHPYTLFGTSCHLSWYGLLEASVPIVQCLFLDLGGGRAEPRLHTFVVRGDRLPPAEVRAVHRASYAALASAVTTDADERRRGLEQRSAVLARVLLEGSALIRVLARTFTPVQIQTDASGVEILEAAPALGVETAALSNALSLFHVAKLVVIGSYPEVHEPRVVTHTAERVSEEYGTHAHKKLRRGYYAYDLAMSFRVGTHKYVLERDDEAVLARLFEVREVCFLRTCLRLVTPVGFVAVAVTDEQCCLLLQSAWTHLYDVLFRGFAGQPPLRDYLGPDLFETGAARSFFFPGFPPVPVYAVHGLHTLMRETALDAAAEVLSWCGLPDIVGSAGKLEVEPCALSLGVPEDEWQVFGTEAGGGAVRLNATAFRERPAGGDRRWLLPPLPRDDGDGENNVVEVSSSTGGAHPPSDDATFTVHVRDATLHRVLIVDLVERVLAKCVRARDFNPYVRYSHRLHTYAVCEKFIENLRFRSRRAFWQIQSLLGYISEHVTSACASAGLLWVLSRGHREFYVYDGYSGHGPVSAEVCVRTVVDCYWRKLFGGDDPGPTCRVQESAPGVLLVWGDERLVGPFNFFYGNGGAGGSPLHGVVGGFAAGHCGGACCAGCVVTHRHSSGGGGSGVGDADHASGGGLDAAAGSGHNGGSDRVSPSTPPAALGGCCCAAGGDWLSAVGHVLGRLPALLRERVSVSELEAVYREILFRFVARRNDVDFWLLRFQPGENEVRPHAGVIDCAPFHGVWAEQGQIIVQSRDTALAADIGYGVYVDKAFAMLTACVEVWARELLSSSTASTTACSSSSVLSSALPSVTSSSSGTATVSPPSCSSSSATWLEERDEWVRSLAVDAQHAAKRVASEGLRFFRLNA
notes: mature; Purified from Sf cells infected with AcUL102; The 873-residue form follows Smith and Pari (1995)
[4]
  binding result: binds
